In article PMC11869522, “Competitive displacement of lipoprotein lipase from heparan sulfate is orchestrated by a disordered acidic cluster in GPIHBP1” (Journal of Lipid Research, 2025):

How the values were obtained:
bLPL [1] = assay: Lipase activity assay, protection against ANGPTL4-catalyzed LPL inactivation; assay type: biochemical, bovine; conditions: 30 nM bLPL, 30 nM ANGPTL4, 300 nM GPIHBP1 variant, room temperature up to 60 min; Intralipid, NEFA; triplicates
human LPL = assay: Native PAGE binding to human LPL; conditions: 4 µM LPL with 18 µM GPIHBP1, 30 min on ice; Coomassie staining
Description: Distinct impacts of disordered acidic clusters in GPIHBP1
To confirm interactions between puri fi ed human GPIHBP11–131, G P IH B P 1 Cluster1-neutral, or GPIHBP1 Cluster2-neutral with human, mouse, and bovine LPL, these protein pairs were incubated for 30 min on ice (4 µM LPL with 18 µM GPIHBP1) before they were analyzed by native PAGE. As th ese concentrations were well above t he K D of 0.2 nM for the wildtype LPL•GPIHBP1 interaction, LPL is saturated with GPIHBP1 in these experiments (1). […]
spect r a for the purified GPIHBP1 variants wer e r ecor ded at 25°C in Helman cuvettes (path- length of 1 mm) with a scan rate of 50 nm/ min c ove r i ng the range of 190- 250 nm, averaging three scans for each protein. Spectra for the pr ote i ns were compared after converting to molar ellipticity using the following equation, […] where, Mw is the molecular weight of the protein, c is the protein concentration in g/l, l is the pat h-length of the cuvette, Nr number of amino acid residues in the protein.
Figure S1 : Binding of GPIHBP1 charge mutants to LPL as assessed by Native PAGE. The electrophoretic mobility of GPIHBP1 variants alone or in presence of purified human LPL ( A), b ovine LPL (B), and murine LPL (C) was assessed by native PAGE followed by Coomassie blue staining. […]

bLPL [2] = assay: PCSK3 cleavage of LPL (SDS-PAGE densitometry); assay type: biochemical, bovine; conditions: 20 μM bLPL, 25°C; for protection of LPL against ANGPTL4-induced cleavage by PCSK3 / protection of LPL against PCSK3 cleavage triggered by spontaneous unfolding: 0–240 min; for protection of LPL against PCSK3 cleavage triggered by spontaneous unfolding: 4 units PCSK3, without ANGPTL4, 25 μM GPIHBP1 variant
Description: To determine if charge-variants of GPIHBP1 confer distinct resistance to ANGPTL4-facilitated cleavage of LPL after Arg^324 by PCSK3 ([33]), we incubated purified bLPL (20 μM) with PCSK3 (4 units) for 0–240 min, either alone or in the presence of ANGPTL4 (2 μM) and/or GPIHBP1 (25 μM) at 25°C in 10 mM 2-(N-morpholino) ethane sulfonic acid (MES), 150 mM NaCl, 1 mM CaCl2, pH 7.0. We tested four different GPIHBP1 variants: GPIHBP1^1–131, GPIHBP1^Cluster1-neutral, GPIHBP1^Cluster2-neutral, and GPIHBP1^34–131 (LU domain only). PCSK3 cleavage was stopped by boiling in SDS-PAGE sample buffer (reduced and alkylated) and the degree of cleavage was assessed by SDS-PAGE using 12% Bis-Tris SDS-PAGE gels followed by densitometric scanning of the corresponding Coomassie blue–stained SDS-polyacrylamide gels.
Secretion of LPL by adipocytes is modulated in an autocrine manner by ANGPTL4. […] In the presence of endogenous ANGPTL4, a significant fraction of LPL was cleaved by PCSK3 in the trans-Golgi compartment. […] The presence of GPIHBP1 dramatically delayed PCSK3 cleavage of LPL ([33]). To assess the role of the acidic tail in GPIHBP1 on this delay, we incubated 20 μM bLPL with 4 units of PCSK3 either alone or in the presence of 2 μM ANGPTL4. We observed that the presence of sub-stoichiometric amounts of ANGPTL4 reduced the half-life of intact bLPL from 110 min to less than 5 min (Fig. 5A). […] Our results emphasized the essential role of GPIHBP1’s acidic tail in protecting LPL against ANGPTL4-induced cleavage by PCSK3.
Fig. 5 GPIHBP1 reduces ANGPTL4-facillitated PSCK3 cleavage of LPL. 20 μM bLPL was incubated with 4 units of PSCK3 for 0–240 min at 25°C and the extent of LPL cleavage after Arg^324 was assessed by densitometric scanning of Coomassie–blue stained polyacrylamide after SDS-PAGE of reduced and alkylated samples. A: PSCK3 cleavage of LPL is accelerated by the presence of 2 μM ANGPTL4—present at sub-stoichiometric amounts compared to bLPL (20 μM). 25 μM intact GPIHBP1, but not GPIHBP1^34–131 mitigates PSCK3 cleavage of LPL. B: Both GPIHBP1^Cluster1-neutral and GPIHBP1^Cluster2-neutral rescue LPL from cleavage by PSCK3 in the absence of ANGPTL4 and both are more efficient than GPIHBP1^34–131. C: in the presence of 2 μM ANGPTL4, 25 μM GPIHBP1^Cluster1-neutral protects LPL from PSCK3 cleavage more efficiently than the GPIHBP1^Cluster2-neutral, which indicates a more prominent role of acidic cluster 2 in protecting LPL from ANGPTL4-catalyzed unfolding and subsequent PSCK3 cleavage. Shown are the mean values (±SEM) for intact LPL relative to that present at time 0 min for 3–5 independent time-course experiments. Some curves appear in multiple panels to increase clarity.

[3] = 4 units PCSK3, 2 μM ANGPTL4, 25 μM GPIHBP1 variant

Molecule	protection of bLPL from ANGPTL4-mediated inactivation (time-dependent decay of LPL activity) (bLPL [1])	binding to hLPL as judged by native PAGE (human LPL)	protection of LPL against ANGPTL4-induced cleavage by PCSK3 (bLPL [2]; [3])	half-life of intact LPL (bLPL [2]; 4 units PCSK3, 2 μM ANGPTL4, 25 μM GPIHBP1 variant, pH 7.0, less than 5 min without GPIHBP1) [min]	protection of LPL against PCSK3 cleavage triggered by spontaneous unfolding (bLPL [2])
GPIHBP1^Cluster1-neutral: GPIHBP1 mutant with all Glu/Asp replaced by Gln/Asn at residues 1–17 (protein, Tyr18 sulfation present in less than 40%; one bi-antennary N-linked glycosylation; left off: uPAR domain III, N-terminal, cleaved) QTQQQQQQQNQNHGPNNYDEEDEDEVEEEETNRLPGGGSRVLLRCYTCKSLPRDERCNLTQNCSHGQTCTTLIAHGNTESGLLTTHSTWCTDSCQPITKTVEGTQVTMTCCQSSLCNVPPWQSSRVQDPTG	greater efficacy than GPIHBP1^Cluster2-neutral	bound	significant protection	25	prevented that cleavage completely
GPIHBP1^Cluster2-neutral: GPIHBP1 mutant with all Glu/Asp replaced by Gln/Asn at residues 19–30 (protein, Tyr18 sulfation absent; one bi-antennary N-linked glycosylation; left off: uPAR domain III, N-terminal, cleaved) QTQQEEEEEDEDHGPDDYNQQNQNQVQQQQTNRLPGGGSRVLLRCYTCKSLPRDERCNLTQNCSHGQTCTTLIAHGNTESGLLTTHSTWCTDSCQPITKTVEGTQVTMTCCQSSLCNVPPWQSSRVQDPTG	–	bound	marginal protection	–	prevented that cleavage completely
